B1: mouse MIGA2 residues 275-570, wild type [mouse (Mus musculus)] / MSP domain of mouse VAPB (residues 1-125) fused to GST [mouse (Mus musculus)] (parent complex)
chain 1: GSLRLRADDEDSLTSEDSFFSATEIFESLQIGEYPLPLSRPAAAYEEALQLVKEGRVPCRTLRTELLGCYSDQDFLAKLHCVRQAFEGLLEERSNQIFFGEVGRQMVTGLMTKAEKSPKGFLESYEEMLSYALRPETWATTRLELEGRGVACMSFFDIVLDFILMDAFEDLENPPSSVLAVLRNRWLSDSFKETALATACWSVLKAKRRLLMVPDGFISHFYSVSEHVSPVLAFGFLGPKPQLSEVCAFFKHQIVQYLRDMFDLDNVRYTSVPALAEDILQLSRRRSEILLGYLGA
chain 2: MAKVEQVLSLEPQHELKFRGPFTDVVTTNLKLGNPTDRNVCFKVKTTVPRRYCVRPNSGVIDAGASLNVSVMLQPFDYDPNEKSKHKFMVQSMFAPPDTSDMEAVWKEAKPEDLMDSKLRCVFEL

Variants of: B1
Experiment: GST pull-down; parent: 0.01; read off a plot

Variant	screen value
chain 1 S18E	~0.01
chain 1 S18E, chain 1 S21D	~1
chain 1 S21D	~0.4

Reference: article PMC9239997, “Structural basis for mitoguardin-2 mediated lipid transport at ER-mitochondrial membrane contact sites” (Nature Communications, 2022)
